Numbering of substitutions follows the chain as printed. In names and notes the source's numbering stands.
B1: CD3B154 (antibody, human IgG1, V domains shown)
VH: EVQLLESGGGLVQPGGSLRLSCAASGFTFNTYAMNWVRQAPGKGLEWVARIRSKYNNYATYYADSVKGRFTISRDNSKNTLYLQMNSLRAEDTAVYYCVKHGNFGNSYVSWFAYWGQGTLVTVSS
VL: QTVVTQEPSLTVSPGGTVTLTCRSSTGAVTTSNYANWVQQKPGQAPRGLIGGTNKRAPGTPARFSGSLLGGKAALTLSGVQPEDEAEYYCALWYSNLWVFGGGTKLTVL
notes: Humanized SP34 variant; human IgG1 constant region with L234A, L235A, F405L; human lambda constant region; also called CDB154
B2: CD3B151 (antibody, human IgG1, V domains shown)
VH: B1 VH
VL: B1 VL with T2A, V80A
notes: Humanized SP34 variant; human IgG1 constant region with L234A, L235A, F405L; human lambda constant region; also called CDB151
B3: CD3B144 (antibody, human IgG1, V domains shown)
VH: B1 VH with L5V, D64A, N76D, T80S, R89K, A90T, V99A, K100R
VL: QSVLTQPPSVSAAPGQKVTISCRSSTGAVTTSNYANWVQQLPGTAPKGLIGGTNKRAPGIPDRFSGSKSGTSATLGITGLQTGDEADYYCALWYSNLWVFGGGTKLTVL
notes: Humanized SP34 variant; human IgG1 constant region with L234A, L235A, F405L; human lambda constant region; also called CDB144
B4: CD3B152 (antibody, human IgG1, V domains shown)
VH: B1 VH
VL: B3 VL
notes: Humanized SP34 variant; human IgG1 constant region with L234A, L235A, F405L; human lambda constant region; also called CDB152
B5: CD3B150 (antibody, human IgG1, V domains shown)
VH: B1 VH with V99A
VL: B1 VL
notes: Humanized SP34 variant; human IgG1 constant region with L234A, L235A, F405L; human lambda constant region; also called CDB150

Columns and labels:
[1] = biological target: T1, cynomolgus CD3E on primary cynomolgus CD4+ T cells (cynomolgus, UniProt Q95LI5 22-198); assay: flow cytometry on primary cynomolgus CD4+ T cells
T1 construct: whole, on cells; On the cells CD3E stands in the CD3/T cell receptor complex
T1 sequence (Q95LI5 22-198): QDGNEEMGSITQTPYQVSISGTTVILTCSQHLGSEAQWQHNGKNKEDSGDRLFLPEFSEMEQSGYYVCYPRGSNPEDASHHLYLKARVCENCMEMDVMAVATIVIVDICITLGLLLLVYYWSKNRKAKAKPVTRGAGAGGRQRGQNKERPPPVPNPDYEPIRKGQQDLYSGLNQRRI
Description: (§1) The resulting panel of anti-CD3 antibodies was tested for binding against cell-surface CD3E on primary human T cells. To do this, binding of antibodies from expression supernatants was visualized using a polyclonal anti-human secondary antibody and analyzed by flow cytometry. Briefly, binding of anti-CD3 antibodies to cell-surface CD3E was assessed by flow cytometry using primary Human T lymphocytes purified by negative selection (Biological Specialty, Colmar, USA). Expression supernatants or purified antibodies were normalized to 10 μg/ml in media or FACS buffer (BD BioSciences), respectively. 2×10⁵ cells were aliquoted into wells of a 96 well round-bottomed plate (CoStar) for labeling. Antibodies in expression supernatant were added to cells and incubated for 45 min at 4° C. Following centrifugation at 1300 rpm for 3 min and removal of supernatant, 50 μL of anti-human IgG (H+L) Alexa Fluor 647 secondary antibody (Life technologies Inc.) was incubated with the cells at a final concentration of 10 μg/mL for 30 min at 4° C. away from direct light. Following washing and resuspension in 30 μL FACs buffer (BD BioSciences). Sample collection was performed on an Intellicyt HTFC system using ForeCyt software. Viable single cells were gated prior to analysis of binding using the green or red fixable live/dead dyes (Life Technologies Inc.) and forward/side scatter area and height parameters, respectively. Graphs were generated in GraphPad Prism version 5 using mean fluorescence intensity values.
Binding analysis of the anti-CD3 hits to primary cynomolgusCD4+ T cells was then tested in order to assess the retention of cross-reactivity. Purified CD4+ T cells from the peripheral blood of cynomolgus monkeys (Zen Bio, Triangle Research Park, USA were used). Assay protocols were similar to those described above. […] This included the strong binders CD3B150, CD3B151 and CD3B154, in which binding was reduced, and several weak binders where binding could no longer be detected over background.

[2] = biological target: T2, cell-surface CD3E on primary human T cells (human, UniProt P07766 23-207); assay: flow cytometry on primary human T cells, anti-human IgG Alexa Fluor 647 secondary
T2 construct: whole, on cells; On the cells CD3E stands in the CD3/T cell receptor complex; also called human CD3
T2 sequence (P07766 23-207): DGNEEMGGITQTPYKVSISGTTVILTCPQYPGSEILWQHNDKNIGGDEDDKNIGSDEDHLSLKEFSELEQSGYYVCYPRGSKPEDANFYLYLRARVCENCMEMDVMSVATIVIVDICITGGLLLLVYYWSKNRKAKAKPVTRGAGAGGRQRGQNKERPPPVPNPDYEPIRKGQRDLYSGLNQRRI
Description: as §1
Two in-house phage-derived antibodies with the same Fc region as the therapeutic antibodies were used as controls: G11 (HC SEQ ID NO:176, LC SEQ ID NO:177), a non-cyno cross-reactive, agonistic antibody was used as a positive control and CD3B94 (HC-SEQ ID NO:178, LC—SEQ ID NO:179) a non-binder/non-agonistic antibody was used to assess non-specific binding. The commercial SP34 antibody was not used as a comparator in this assay since it is a mouse antibody and the use of a different secondary detection reagent would have prohibited direct comparison with the variants tested.

Binder	binding result [1]	binding result [2]
B1	binds	binds
B2	binds	binds
B3	–	no binding
B4	–	no binding
B5	binds	binds
